Columns and labels:
Conditions in all cases: qPCR; 3 mM MgCl2, 37 C
[1] = test system: MG167-5 RT (uncultivated organism (metagenomic))
[2] = test system: T1, MG167-3 RT (uncultivated organism (metagenomic))
T1 sequence: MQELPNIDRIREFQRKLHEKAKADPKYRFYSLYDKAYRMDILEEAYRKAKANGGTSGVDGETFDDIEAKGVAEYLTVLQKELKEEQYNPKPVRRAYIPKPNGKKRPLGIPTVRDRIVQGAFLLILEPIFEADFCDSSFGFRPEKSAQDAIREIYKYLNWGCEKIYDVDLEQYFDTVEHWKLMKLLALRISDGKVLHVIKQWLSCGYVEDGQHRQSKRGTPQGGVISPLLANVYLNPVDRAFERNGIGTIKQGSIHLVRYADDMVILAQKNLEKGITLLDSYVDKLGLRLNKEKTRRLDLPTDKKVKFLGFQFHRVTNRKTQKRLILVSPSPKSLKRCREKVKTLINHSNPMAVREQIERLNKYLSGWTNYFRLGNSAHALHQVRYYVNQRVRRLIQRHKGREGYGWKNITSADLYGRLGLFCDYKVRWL

[3] = test system: T2, MG153-8 RT (uncultivated organism (metagenomic))
T2 sequence: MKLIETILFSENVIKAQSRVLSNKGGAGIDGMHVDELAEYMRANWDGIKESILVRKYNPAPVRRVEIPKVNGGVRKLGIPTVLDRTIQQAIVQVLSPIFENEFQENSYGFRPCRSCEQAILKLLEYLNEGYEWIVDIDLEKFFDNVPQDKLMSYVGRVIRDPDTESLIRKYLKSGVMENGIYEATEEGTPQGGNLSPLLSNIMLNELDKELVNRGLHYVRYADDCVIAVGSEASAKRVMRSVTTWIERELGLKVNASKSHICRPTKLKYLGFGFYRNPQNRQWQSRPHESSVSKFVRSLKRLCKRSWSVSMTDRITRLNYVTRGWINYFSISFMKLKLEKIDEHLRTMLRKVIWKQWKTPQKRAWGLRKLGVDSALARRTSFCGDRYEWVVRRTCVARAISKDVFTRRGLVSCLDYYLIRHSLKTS

[4] = test system: T3, MG153-27 RT (uncultivated organism (metagenomic))
T3 sequence: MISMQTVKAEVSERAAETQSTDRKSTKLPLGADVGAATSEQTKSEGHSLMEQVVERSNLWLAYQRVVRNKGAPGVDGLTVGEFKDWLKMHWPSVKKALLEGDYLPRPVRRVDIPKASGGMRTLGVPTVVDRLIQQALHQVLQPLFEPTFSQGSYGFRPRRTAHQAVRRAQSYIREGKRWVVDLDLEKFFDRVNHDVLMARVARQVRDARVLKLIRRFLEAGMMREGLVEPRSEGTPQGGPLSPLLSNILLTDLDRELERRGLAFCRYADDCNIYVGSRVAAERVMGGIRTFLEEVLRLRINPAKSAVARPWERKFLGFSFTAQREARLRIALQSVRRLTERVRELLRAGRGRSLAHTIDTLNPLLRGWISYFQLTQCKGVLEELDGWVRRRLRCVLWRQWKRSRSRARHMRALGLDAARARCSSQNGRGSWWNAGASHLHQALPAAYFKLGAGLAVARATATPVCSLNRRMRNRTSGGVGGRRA

[5] = test system: T4, MG153-25 RT (uncultivated organism (metagenomic))
T4 sequence: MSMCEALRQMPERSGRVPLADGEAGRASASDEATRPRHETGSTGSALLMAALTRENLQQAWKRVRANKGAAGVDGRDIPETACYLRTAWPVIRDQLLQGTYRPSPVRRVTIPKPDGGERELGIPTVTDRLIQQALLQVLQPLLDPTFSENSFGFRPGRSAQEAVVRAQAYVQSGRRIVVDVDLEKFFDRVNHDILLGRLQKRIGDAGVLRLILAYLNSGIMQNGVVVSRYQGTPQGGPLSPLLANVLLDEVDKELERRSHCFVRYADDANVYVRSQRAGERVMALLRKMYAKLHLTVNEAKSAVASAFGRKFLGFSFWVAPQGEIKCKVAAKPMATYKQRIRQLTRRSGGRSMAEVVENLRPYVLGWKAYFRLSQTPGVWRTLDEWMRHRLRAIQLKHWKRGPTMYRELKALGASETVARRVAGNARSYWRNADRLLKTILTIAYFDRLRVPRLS

Measured: activity (fold over background)

Chain of MG167-5 RT (uncultivated organism (metagenomic)) (chain, as listed by the source): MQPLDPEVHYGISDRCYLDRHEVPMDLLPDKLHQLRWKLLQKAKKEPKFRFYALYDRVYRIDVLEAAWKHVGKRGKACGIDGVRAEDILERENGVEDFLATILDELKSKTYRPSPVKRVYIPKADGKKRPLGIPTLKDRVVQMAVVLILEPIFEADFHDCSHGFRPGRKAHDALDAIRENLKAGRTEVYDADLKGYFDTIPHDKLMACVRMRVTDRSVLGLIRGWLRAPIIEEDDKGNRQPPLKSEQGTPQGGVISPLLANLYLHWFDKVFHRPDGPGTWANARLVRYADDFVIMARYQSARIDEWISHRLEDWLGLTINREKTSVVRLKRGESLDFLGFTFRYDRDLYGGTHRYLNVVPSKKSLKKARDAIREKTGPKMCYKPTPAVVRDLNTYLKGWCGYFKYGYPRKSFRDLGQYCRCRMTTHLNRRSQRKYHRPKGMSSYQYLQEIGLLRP

200 nt RNA template annealed to DNA primer
> 10: all assays above

Source: US20240287484
